Publication PMC10766394

Biological target: anti-VEEV human IgG1 antibody F5 with the loss of function Fc mutations L234A and L235A (hF5-LALA) (human)
Assay: ELISA

mouse complement component C1q from normal mouse serum (from UniProt P98086;P14106;Q02105) (complex)
fold reduction in binding against hF5-WT at 2.8 µg/ml: 5.1 fold
